T1: 32-residue peptide encompassing RSV G Phe165-Lys196, subtype B (Human respiratory syncytial virus …, UniProt O36633, strain)
T1 construct: attachment glycoprotein G of human RSV subtype B, residues Phe165-Lys196; The tested set is a series of alanine mutants of this peptide; source: covalently linked peptides on Pepscan cards
T1 chain: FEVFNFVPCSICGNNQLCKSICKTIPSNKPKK

T2: 45-residue synthetic peptide encompassing the subtype A RSV G central conserved region (G peptide) (Human respiratory syncytial virus A …, not fully specified; N-terminal biotin coupling as the last step in synthesis; disulfide bonds of the cystine noose formed by oxidative folding)
T2 construct: attachment glycoprotein G of human RSV subtype A, central conserved region, residues Asn153-Lys197 (45 residues); also called RSV G peptide; subtype A RSV G peptide; source: synthetic peptide (Fmoc solid phase, HPLC), oxidatively folded
T2 chain: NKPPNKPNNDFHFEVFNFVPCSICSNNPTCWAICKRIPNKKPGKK

B1: CB017.5 IgG (antibody, V domains shown)
VH: QVQLVESGGGVVQPGRSLRLSCSASGFTFSVYAMHWVRQAPGQGLEWVAIIWYDGSNKYYADSVKGRFTISRDNSKETLYLQMNSLRVEDTAVYYCARDPIVGHTRDGLDVWGQGTTVTVSS
VL: SYELTQPPSVSVSPGQTARVTCSGDAMAEQYTYWYQQKPGQAPVLIIFKDTERPSGIPERFSGSSSGTTVTLTISGVQTEDEADYYCQSTDSSGTSWVFGGGTKLTVL
notes: as the light chain of m2 (PDB 6BLH); full-length IgG1; also called antibody CB017.5; source: FreeStyle 293-F or PER.C6 cells, transfected, purified (Protein A)
B2: Fab CB017.5 (Fab, V domains shown)
VH: B1 VH
VL: B1 VL
notes: human; Fab cut with papain from full-length IgG1; source: IgG from FreeStyle 293-F or PER.C6 cells, transfected, Protein A; Fab by papain digestion, purified (Protein A flow-through, SEC)
B3: CB002.5 IgG (antibody, V domains shown)
VH: QVQLQESGPRLVKPSETLSLTCTVSGGSTSSYFWNWIRQPPGKGLEWIGYIYGSGSADYNPSLKSRVTISIDTSKTQFSLKLTSVTAADTAVYYCARSGFCSDDACYRRGSWFDPWGQGTLVTVSS
VL: DIQMTQSPSSLSASVGDRVTITCRASQSIDNYLNWYQQKPGKAPKLLIYAASGLQSGVPSRFSGSGSGTEFTLTVSSLHPEDFATYYCQQSYSTLTWTFGQGTKVEIK
B4: Fab CB002.5 (Fab, V domains shown)
VH: B3 VH
VL: B3 VL
notes: as for B2

Tests used:
[1] = target: secreted form of RSV G from strain A2 (sG) (human respiratory syncytial virus strain A2)
[2] = target: T1, 32-residue peptide encompassing RSV G …; assay: peptide or protein array; Pepscan-based ELISA: peptides covalently linked in the wells of cards, mAb at 1-10 ng/mL overnight at 4°C in PBS with horse serum, OVA and Tween 80; HRP-linked anti-human IgG, ABTS; settings: both partners purified
[3] = target: T3, secreted form of RSV G from strain A2 (sG) (Human respiratory syncytial virus A, …, UniProt P03423, strain); assay: SPR; sG captured by its C-terminal 8xHis tag on an NTA sensor chip (60-150 RU), Biacore X100; Fab in serial 3-fold dilutions from 300 nM to 46.5 pM in HBS-P+; double-reference subtracted, 1:1 binding model; settings: both partners purified
T3 construct: attachment glycoprotein G of human respiratory syncytial virus strain A2, secreted form (sG); also called RSV sG; wild-type RSV sG from strain A2; source: FreeStyle 293-F, transfected, purified from supernatant (Strep-Tactin, SEC); not shown: 8xHis, C-terminal, kept

[4] = target: T2, 45-residue synthetic peptide …; assay: SPR; G peptide (or its reduced and alkylated form) immobilised on a CM5 chip by primary-amine coupling (25 RU), Biacore X100; Fab in serial 2-fold dilutions in HBS-P+ (CB002.5 25 nM-98 pM, CB017.5 100 nM-195 pM; on the reduced and alkylated peptide CB002.5 1,000-1.95 nM, CB017.5 62.5-1.95 nM); 1:1 binding model; settings: both partners purified
[5] = target: reduced and alkylated form of the G peptide (human respiratory syncytial virus subtype A) (UniProt P03423); assay: as above

Row | Binder | IC50 of neutralization of RSV (rgRSV224) infection of primary HBECs at an air-liquid interface, in the absence of complement; pair that is blocked: RSV G and CX3CR1 [1] [nM] | binding result [2] | Kd [3] [nM] | Kd [4] [nM] | Kd [5] [nM]
1 | B1 | 45.4 | binds |  |  | 
2 | B2 |  |  | 2.4 | 4.1 | 27
3 | B3 | 4.7 |  |  |  | 
4 | B4 |  |  | 3.3 | 0.52 | 18000
